In a protein production outcome set (Wang et al. 2014):

Test: label from the status in PepcDB records
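Note: failed if final PepcDB status was selected cloned or expressed and not failed if soluble or beyond.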

Q: For “AADHVKGDGKLTSKKISVADYNEIKVDGVIDFNYEQSDDPSTVEVTVDQNLHPYVNIEVKDRVLTIAFKGAKVDHFTKFIVKTNSKWLAAAKVSGNANFMVNSPLTGDETVIKANANSLVQLKETVTVGKLDLNVSGSANMVVNHLEADKIECDIDGSGSITIKKGNAKEGDYSIVSSGDIHAFGLAVPQLSCKVTGNGLAEVHATDNLKANVVGKGNIRYKGPTAVQQRIIGKGTVEEVKE”, which protein production is on record?
A: not failed

Q: For “ADGILGVDKLGHFIFANESATKITGYSEEQILSSDLISLFAGDNKENLTFEDTEVYKAIQSKEVIRISNEYVLMSGARELPLEYSISPVEDDE”, which protein production is on record?
A: failed

Q: With “ADNNKWKPLFGKNLENANYNPEVWSETDGVLGAVKDESIWTKDEYENFELDLDFKTDVGTNSGVVVYCTDTKDWIPNSVEIQIADDHCEKWGNGKPYEKCGAIYGHLGAVQDKVVKKPGEWNHMRIKCAGQHIMVILNGKKVTEMDMSKWTSGTKNPDGSDIPSWLPKPFAELPTKGFIGLQGKHGDSLIWFRNIKIRSL” as the sequence, how does the protein production read?
A: not failed

Q: With “ADPFASITHLVDSAMVNKTDSIDREKTSDEPKPIEADESFDDFIYNFASDDALQRQRVVFPLPYYNGERASKIDRKYWKHDDLFAKQSYYTLLFDREEDMDLVGDTSLTSVQVEWIFVKKRMVKKYYFERIKGAWMLEAINLRPIEENENEDFVEFFGHFATDSIFQSRRIRQPLVFVTTDPDDDFSILETTLDLNQWFAFKPALPADKLSNINYGQQNDDNASHKILALKGIGNGFSNILYFQRKDSGWELYKFEDTSI” as the sequence, how does the protein production read?
A: not failed

Q: Which protein production does the source give for “ADVSATVSDMGSLLTAVTLAGVLDYYSVGTKVIKAPKKMVEQQILMTLQTMASLVESSGVDGLVKALNPELLSKAASSMHLLDQQKDLDAALEILTHL” here?
A: not failed

Q: With “AENNMVRLSRIIIDPERLEEYNAYLKEEIEVSMRLEPGVLVLYAVAEKERPNHVTILEIYADEAAYKSHIATPHFKKYKEGTLDMVQMLELIDATPLIPGLKMK” as the sequence, how does the protein production read?
A: not failed

Q: For “AGHRGQCVGRHREVVAIDNSKATNPHAADSALAGFSSVVWVAGGQLKGAEIDELIVRHAGRIKAVALLGVDRDVIEDSVRTHIPGIPVLSVSETDPRRAMDEAVAWSVSQAEAGDAIVLAPAAASLDMYTGMGQRGDMFATAIAQHLHD”, which protein production is on record?
A: failed

Q: With “AGNETVTEGFKEGQVGSSAMPHKMNARSCERVGGLQVILRGYLTMVADLSGQQWNEGDVFCSVIRRVALPDAFFALDGMYETFLTVLAEFGAFPAMIDRELERYLPFLATTRILMAAVRVGVGRETAHEVIKENAVAVALNMRENGGEQDLIDRLAADERLPMTREQLDEALADRHAFIGAAESQVARVVDRVNDLVRRYPAAAQYTPGDIL” as the sequence, how does the protein production read?
A: failed

Q: With “AGQVVHTETTEVVLTADPVTGFGIQLQGSVFATETLSSPPLISYIEADSPAERCGVLQIGDRVMAINGIPTEDSTFEEANQLLRDSSITSKVTLEIEFDVAESVIPSSG” as the sequence, how does the protein production read?
A: not failed

Q: With “AGSMEDIPVEEAVLTGVATDNSEAKITVLGIPDSPGSASAVFRALADAEINIDTVLQNISSLEDNRTDITFTCPRADGPHAMELLRNLQAKNDWQNVLYDDQIGKVSLVGAGMKSHPGVTAEFCEALRDAGVNIELISTSEIRISVLIRESDVDVAARAIHEKFELGGETEAIVYAGTGR” as the sequence, how does the protein production read?
A: failed

Q: Which protein production does the source give for “AHHDEVLDIPKGVEVYEIEGPFFFGIANRFEEIMNTLGDHPDVRIIRMRHVPFMDSTGMHNLENLIKMSRKEGVSIVLSGVRKDVHEELATAGIVELLGEENVCADIQAALRQAQAIAQGA” here?
A: failed

Q: For “AIAAAPIESLLNEICESEDPIEELKSLRTAVLATPVSGLRPAVSGARLEIIFSLLNTNDKEQIEVCVEILSRVLQALEPVQLAQNYRTALQSGLNHPDDSVKVLTLTQIGRVAGHTEGVTQMLNNVEILHDVIQCISVERIAVAKEAIAALSKLSNTKAGLDALFRSDLLNKLKDVMLTSDIIRYRVYELIVEVSTVSPVSLGYCANSGLISQMLEELTGDDVLVRATAIEMVTNLAQSQHGRQYLAQQGIMDKISSVQKIFGAHNYLKLKTYLNEGSYYVTAVSAVTTEGAD”, which protein production is on record?
A: failed

Q: With “AIAAEAVLRVARRQLSQRGGSGAPILLRQMFEPVSCTFTYLLGDRESREAVLIDPVLETAPRDAQLIKELGLRLLYAVNTHCHADHITGSGLLRSLLPGCQSVISRLSGAQADLHIEDGDSIRFGRFALETRASPGHTPGCVTFVLNDHSMAFTGDALLIRGCGRTDFQQGCAKTLYHSVHEKIFTLPGDCLIYPAHDYHGFTVSTVEEERTLNPRLTLSCEEFVKIMGNLNLPKPQQIDFAVPANMRCGVQTPTA” as the sequence, how does the protein production read?
A: failed

Q: With “AIAAVKAQVLYDFTAEPGNNELTVHEGETLTITNQNVGGGWVEAQNSRGNVGLVPVDYVEVNSASAQAPATQYIDARNQGNNNSTANTQGVNGNEAWTATTWSNSYPADNWNYTEQEPAGNNGSVYSFDEEWDDDSDDGKSTGGYGGSQAEDGGTMQRSGAHSTMKLSLNKFPGFSKTPNPEVYLLTKHITKGNDRLSVYPGEVGPVWLYPQTQLDCVVADPKKGSKMYGLKSYIEYQITPNTTNRPVNHRYKHFDWLYERLVEKFACALPVPGLPDKQVTGRFEEEFIKMRMERLQGWMSRMCRHPVISNSEVFQLFLNYRDEKEWKLGKRKAEKDETVGVKIFSTIDPELPELDPAQVEQKYEVYNQFTRSMDNSVKELLAVGNLHWKRCTGPLQKEYRQIGKAFQNMSSVFNTSGYPRESTLTEALTATGKTYEEIAEVIAAQPRKDLHFLLETNNEYKGLLGCFPDTIGVHKAAIDKVKEADHLVMTNKISQQDKHTMEKNLSTMSYALQAEMNHFHSNRIYDYNRLMQFYLEEQVKFYETIAEKLKKALGQYTTI” as the sequence, how does the protein production read?
A: failed

Q: For “AIAEPGSPAGAGAEAPAFYSERKLSRKQLKKLAKAEREYEEERRKELEAAQAVDTAQKRELARIESILRTHALRMEYVEPDGHCLFRALVRQLRPLIQSGLFDTYFPAADTETRSALLTWSTIPDEMEAVWLLRKTLASFIRRRGTEFFPFIVGELDPQGTLLDASDDPAERVAQYCARLEDGTLWGGQPELQAVALALRCRVFVFADPEILPNGMLVMGADDASTDTGAESVTALRVSFHKQFFSLGEHYHAVVPADDSRGDARDPRISAS”, which protein production is on record?
A: not failed

Q: With “AIAFKRKTAWFSDSVEKEVISFWVSEGGDISSWKTAGYLFSDDASSEDTKRIYGSEDYVKNRATVFHSSFLLACQPRQSVTSVPIGHYVLPPDFVQNEMKAIIGRFIWEKDEQVICEEQINPEVPKDILSGETEDHALRERSSQDDYQTVTSQSKVCSCCEMRQYPVNNMISGYVHIDQMRKYSGELKDFLPSLHGHDVSRSNDPTPPFHRKAV” as the sequence, how does the protein production read?
A: failed

Q: For “AIAKETEQVSEAPHGLEGAWLDLTNRVRVSGDTVEACSAFSIGPPRCRWLLQATDRGVNCAALDHYVPHICGTHTETVYHIAHHRYIKRAVCEIPFFRFHKARIQVCTAKIACTEQVLPSADTDYPCLEPNDLIVGPSALNRAPRYTRAQDSTIEALILIVVGPDGTSDWRDGKLDDRPPYLTPAAIESLATRYPNMRHLLTNLPSVDRRRDGGLVRSHRAFFATDFAGDGTPSESPQKTITELLRVPPDWQLYDDAEGVVCISLAPIEGLDAIPSSVYFKSH”, which protein production is on record?
A: failed

Q: With “AIAPVKKKRKAPGVAAAVAEDAGLKKCKIPSYCRSQPPARLISGEEDFSRKKCLAWFYEYAGPDEVVGPEGMEKFCEDIGVEPENIIMLVLAWKLEAESMGFFTKEEWLKGMTSLQCDCTEKLQSRFDFLRSQLNDISSFKNIYTYAFDFARDKDQRSLDIDTAKSMLALLLGRTWPLFSVFYQYLEQSKYRVMNKDQWYNVLEFSRTVHADLSNYDEDGAWPVLLDEFVEWQKNPSNIIARTVVKTMQTL” as the sequence, how does the protein production read?
A: failed

Q: With “AIASERLYYFVIVGRDDRVLYDLLYPASLSELDWRTSSELSSPAERGDFEPHHFIPSIQVLLQFVAYSALDHIEEKYWLTSARSLKHIFRFRDWSASVQLTPNAATRFVLVHGASDDASRNVRAFLHAVYEAYVPHVVCNPFQEEDAPITSKRFHEVAKNLAKRYFSG” as the sequence, how does the protein production read?
A: failed

Q: With “AIASNSLEEKKSYFSNRVNLLVENIGTSLRDLLRQGADSSDWNEYAGNLELHLSIENISRDLEELLTLSFEIEVLTLEGNLPQVMSETDGVEAAIQKRIAELNFALEQTGVFSGFSFLYDVNFQQIVEKATRALQKVSDYTPWVLDDGHNM” as the sequence, how does the protein production read?
A: failed

Q: With “AIREFNTKEKVFNEFTAVFDVLNHLPAFAKLHLANSMSVRYANTLGISQRNAEVFANRGTSGIDGVISTAYGYALKTSQLVTIITGDLAFFYDRNAFWNNYKPSNLRVVLLNNHGGGIFRMIDGPSALPELDELFETKQTLSARYLATEHGLEYTLCKNLNGLNQALESFFQPSMFGKILEIETDSVKN” as the sequence, how does the protein production read?
A: failed

Q: Which protein production does the source give for “AKSEMAFAGKGEISPRAITMWDFSWLERRWPGAGYEDWDQVLDELSERGYNAIRIDAYPHLIAENPMKKWLLKEVWNQQDWGSPDMNEVQVQPNLNLFLSKCKERDIKVGLSSWYRLDVDEVCLKLDTPEKLADCWLTILRSIEEDGLLDTILYVDLCNEWPGDSWAPFFAKTYPNVGWGNWYKEESLRWMKTSLEKMRQVYPDMPFLYSFDHGDVKKYEEVDCSFLDLYEHHIWMAQQNGGEFYKLVGYGYNRFLPDDYKNVVKNAERVYRERPGYWQKLLTDKIELMASVARKNRRPLVTTECWGLVDYKDWPLLKWDWVKDLCELGTITAARTGMWVGVATSNFCGPQFAGMWRDVEWHKRLTSIIRSSPLDESLTKNNEVAAKLLKRL” here?
A: not failed

Q: With “ALRERSEGLVLIGRRHLRSNNSWLHNVPALTGGTNRCTLHIHPEDAERLGLTDGAPVRVRGAGGAVTAPVEVTDGIRRGVVSLPHGWGHDRPGTRMSHAALDPGVNVNQLLDGSLLDPLSGNAVLNGVPVELTRT” as the sequence, how does the protein production read?
A: failed

Q: For “AMPIAKAIEEKWGVPAEVVIAQAALESGWGKHVKGNAYFGIKGKGSQGSINFGTHEVINGKKISINDNFASYGGFGDAANGYGEFLNKNKRYREAFKHKDNPVEFAKAIARAGYATDPDYANKLTKIIQSNKFS”, which protein production is on record?
A: not failed

Q: With “ANVKLLLPYILKWEGGFVHDPADAGGATNKGVTIATWKRVGYDKDGDGDIDVEDLKLLTDDDVLNRVLKPFYWDRWKADLIESQKVANILVDWVWGSGKYGIVIPQRILGVQADGIVGNKTLQAVNSADPDELFESIFDARREFLEDITARSIKKYEDSIGRKATERELLRHTNKRFLRGWLNRLEDIRKL” as the sequence, how does the protein production read?
A: not failed

Q: With “AQAEVRIDGPIEYGVFESRYQDFQPGERVLTRSEQNIQQTTEVPAKLGTKFGMRYQLSGKQEGDTPLTLLYLTPGVVTPDGQRHDKFEVVQKLVPGAPTDVMAYEFTEPHEVVKGEWRLMVFQGDRLLAEKSFDVR” as the sequence, how does the protein production read?
A: not failed

Q: Which protein production does the source give for “AQNQDCAFFFPNQEGEQITRNCYTADGKLTNILVYRVDQAYEYPSGMEVVANYTFADAAGKTLNSGQMVARCSDGNFSMSMGDVATFPTALNMMNADVYMMGDLMNYPDAFSNPMNPGDDDEFDDGTLRLYQKGNKNNRAEISVFDREFVTTETVNTPAGAFYCTKVKYEMNIWTPKETIKGYGYEWYAPNIGIVRSEQYNNKKELQSYSVLERIKK” here?
A: not failed

Q: Which protein production does the source give for “ARRASAGELDAAVMHELAPLKMERAVFQTRITEGEPGPEGRDAVAFEVATNPGAPAGPLNRIASGGELSRFLLALKVCLRGDDGGKTMIFDEIDRGVGGATADAVGRRLEALAGAGQVLVVTHSPQVAARGVHHWRV” here?
A: failed

Q: With “ARTYRGVELIPVENIYYFLADQKYVTVRHKNGSVLIDETLKELELEFQNRFIRIHRNALVSVDYLDGLEVISSGQYQVRCREVNERLAVSRRHLPYLRDRMQKM” as the sequence, how does the protein production read?
A: failed
